# Ends that are not written are not given here. * marks the point of attachment. AMC = Cc1cc(=O)oc2cc(N*)ccc12
# T1: platelet ADAMTS13
# T1 sequence: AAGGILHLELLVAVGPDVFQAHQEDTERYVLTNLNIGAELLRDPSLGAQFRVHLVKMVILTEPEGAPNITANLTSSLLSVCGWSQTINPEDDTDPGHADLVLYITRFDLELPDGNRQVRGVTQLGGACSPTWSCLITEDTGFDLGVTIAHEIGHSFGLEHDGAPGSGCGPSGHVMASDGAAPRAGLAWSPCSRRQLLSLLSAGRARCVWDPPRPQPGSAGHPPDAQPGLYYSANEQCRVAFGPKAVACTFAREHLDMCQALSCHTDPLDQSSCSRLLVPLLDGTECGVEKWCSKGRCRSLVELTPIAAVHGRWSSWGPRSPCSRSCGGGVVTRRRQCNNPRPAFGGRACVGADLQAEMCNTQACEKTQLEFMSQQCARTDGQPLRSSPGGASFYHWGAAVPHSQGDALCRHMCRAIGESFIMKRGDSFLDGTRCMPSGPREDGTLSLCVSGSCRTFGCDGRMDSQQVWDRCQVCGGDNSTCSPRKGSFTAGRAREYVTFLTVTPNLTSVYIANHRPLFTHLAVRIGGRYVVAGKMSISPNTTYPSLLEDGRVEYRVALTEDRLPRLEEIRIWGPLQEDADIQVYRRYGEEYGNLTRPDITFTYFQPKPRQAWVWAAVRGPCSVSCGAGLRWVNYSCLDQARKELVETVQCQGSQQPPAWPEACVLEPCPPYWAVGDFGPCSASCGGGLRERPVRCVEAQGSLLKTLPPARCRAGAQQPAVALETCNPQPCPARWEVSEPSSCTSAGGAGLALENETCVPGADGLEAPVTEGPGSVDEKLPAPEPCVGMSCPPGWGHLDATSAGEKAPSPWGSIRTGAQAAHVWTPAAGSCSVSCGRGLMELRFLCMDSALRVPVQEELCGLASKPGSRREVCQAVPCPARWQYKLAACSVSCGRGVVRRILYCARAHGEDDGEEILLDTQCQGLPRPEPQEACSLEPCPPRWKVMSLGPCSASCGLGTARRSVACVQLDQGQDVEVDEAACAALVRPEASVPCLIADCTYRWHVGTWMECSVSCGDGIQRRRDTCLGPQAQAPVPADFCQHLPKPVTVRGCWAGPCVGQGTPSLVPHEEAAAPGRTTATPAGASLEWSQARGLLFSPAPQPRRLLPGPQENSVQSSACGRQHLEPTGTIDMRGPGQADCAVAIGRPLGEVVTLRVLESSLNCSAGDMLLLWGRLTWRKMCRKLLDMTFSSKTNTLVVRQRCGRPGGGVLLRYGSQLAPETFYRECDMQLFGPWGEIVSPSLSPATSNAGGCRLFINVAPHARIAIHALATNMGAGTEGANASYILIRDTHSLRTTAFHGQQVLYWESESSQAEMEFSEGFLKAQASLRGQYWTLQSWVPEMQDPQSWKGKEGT
# T2: NH2-Arg-Lys(DABCYL)-NLVYMVTGD(EDANS)-Arg-COOH
# T2 chain: RKNLVYMVTGDR
# T3: Leu-Val-Tyr-AMC
# T3 chain: LVY
# T4: Suc-Leu-Leu-Val-Tyr-AMC
# T4 chain: LLVY
# Legend:
# platelet ADAMTS13 [1] = assay: Enhancement of platelet ADAMTS13 activity by treatment with FXIa; assay type: biochemical, human; details: 0.3 ng/ml FXIa, FIG. 11
# Experimental: Washed normal platelets from 200 μL of PRP were resuspended in 1 ml of assay buffer. Washed platelets from 1 ml of PRP from a subject with acquired TTP were resuspended in 50 μL of assay buffer. Normal or TTP platelets (10 μl) were added to 10 mM Tris-HCl pH 8.0 assay buffer (80 μl) or assay buffer containing 0.3 ng/ml of FXIa (80 μl). LVY-AMC substrate (10 μl of 2 mM) was added and the fluorescence was monitored (Ex 360 nm/Em 440 nm) for 1500 seconds. FXIa at 0.3 ng/ml was used as a control.
# platelet ADAMTS13 [2] = test system: T1, platelet ADAMTS13
# ADAMTS13 = ADAMTS13 activity in PRP using peptidyl substrates; assay type: biochemical, human; details: normal PRP 20 μl, 0.8 mM substrate, 37° C., 10 mM Tris-HCl pH 8.0, Ex 360 nm/Em 460 nm, FIG. 3
# Experimental: Blood was collected by venopuncture into collection tubes containing 0.12 M sodium citrate, an anti-coagulant. The citrated blood was centrifuged at 700 rpm for 10 minutes. The supernatant was removed and saved as the platelet rich plasma (PRP) fraction. The PRP was centrifuged at 10,000 rpm for 20 minutes. The supernatant was removed and saved as the platelet poor plasma (PPP) fraction. The pellet contained the platelets, which were washed by resuspending in 10 mM Tris-HCl pH 8.0 buffer and centrifuging at 10,000 rpm for 10 minutes. The isolated platelets were resuspended in buffer and used in experiments.
# As discussed above, Furlan et al. reported that some peptidyl-pNA moieties, such as XLY-pNA and XVY-pNA, were not substrates for ADAMTS13. We prepared LVY-pNA and tested it for its ability to be cleaved by ADAMTS13. The results shown in FIG. 2 confirm the findings of Furlan et al., i.e., LVY-pNA was not cleaved by ADAMTS13.
# In order to determine the effect of modifying the length of the peptide sequence conjugated to the AMC fluorochrome, normal PRP (20 μl) was incubated at 37° C. with a final concentration of 0.8 mM Suc-LLVY-AMC or LVY-AMC in 10 mM Tris-HCl pH 8.0 buffer in total volume of 200 μl. Fluorescence was measured using a microtiter fluorophotometric plate reader (Ex 360 nm/Em 460 nm).
# [3] = target: T2, NH2-Arg-Lys(DABCYL)-NLVYMVTGD(EDANS)-Arg …
# Leu-Val-Tyr-AMC = target: T3, Leu-Val-Tyr-AMC
# Suc-Leu-Leu-Val-Tyr-AMC = target: T4, Suc-Leu-Leu-Val-Tyr-AMC
molecule,measurement,setting,value
"FXIa: activated Factor XI, plasma serine protease",increase of ADAMTS13 activity towards LVY-AMC substrate upon treatment of platelets with FXIa,"platelet ADAMTS13 [1]; normal platelets, 1500 seconds",approximately 8 fold
same,enhancement of activity of platelets by treatment with FXIa,"platelet ADAMTS13 [1]; platelets from PRP of an acquired TTP patient, compared with normal individual",much lesser extent
activated Factor XI,ADAMTS13 activity towards LVY-AMC substrate,platelet ADAMTS13 [2],ADAMTS13 activity was significantly increased (by approximately 8-fold) towards LVY-AMC substrate upon treatment of platelets with FXIa
"Leu-Val-Tyr-AMC (Leu-Val-Tyr-{AMC}) [LVY-AMC, fluorogenic peptidyl substrate from Bachem Bioscience Inc; also made by QPR]",cleavage of peptidyl-AMC substrate by ADAMTS13 in PRP,ADAMTS13,cleaved
platelet ADAMTS13 (protein) AAGGILHLELLVAVGPDVFQAHQEDTERYVLTNLNIGAELLRDPSLGAQFRVHLVKMVILTEPEGAPNITANLTSSLLSVCGWSQTINPEDDTDPGHADLVLYITRFDLELPDGNRQVRGVTQLGGACSPTWSCLITEDTGFDLGVTIAHEIGHSFGLEHDGAPGSGCGPSGHVMASDGAAPRAGLAWSPCSRRQLLSLLSAGRARCVWDPPRPQPGSAGHPPDAQPGLYYSANEQCRVAFGPKAVACTFAREHLDMCQALSCHTDPLDQSSCSRLLVPLLDGTECGVEKWCSKGRCRSLVELTPIAAVHGRWSSWGPRSPCSRSCGGGVVTRRRQCNNPRPAFGGRACVGADLQAEMCNTQACEKTQLEFMSQQCARTDGQPLRSSPGGASFYHWGAAVPHSQGDALCRHMCRAIGESFIMKRGDSFLDGTRCMPSGPREDGTLSLCVSGSCRTFGCDGRMDSQQVWDRCQVCGGDNSTCSPRKGSFTAGRAREYVTFLTVTPNLTSVYIANHRPLFTHLAVRIGGRYVVAGKMSISPNTTYPSLLEDGRVEYRVALTEDRLPRLEEIRIWGPLQEDADIQVYRRYGEEYGNLTRPDITFTYFQPKPRQAWVWAAVRGPCSVSCGAGLRWVNYSCLDQARKELVETVQCQGSQQPPAWPEACVLEPCPPYWAVGDFGPCSASCGGGLRERPVRCVEAQGSLLKTLPPARCRAGAQQPAVALETCNPQPCPARWEVSEPSSCTSAGGAGLALENETCVPGADGLEAPVTEGPGSVDEKLPAPEPCVGMSCPPGWGHLDATSAGEKAPSPWGSIRTGAQAAHVWTPAAGSCSVSCGRGLMELRFLCMDSALRVPVQEELCGLASKPGSRREVCQAVPCPARWQYKLAACSVSCGRGVVRRILYCARAHGEDDGEEILLDTQCQGLPRPEPQEACSLEPCPPRWKVMSLGPCSASCGLGTARRSVACVQLDQGQDVEVDEAACAALVRPEASVPCLIADCTYRWHVGTWMECSVSCGDGIQRRRDTCLGPQAQAPVPADFCQHLPKPVTVRGCWAGPCVGQGTPSLVPHEEAAAPGRTTATPAGASLEWSQARGLLFSPAPQPRRLLPGPQENSVQSSACGRQHLEPTGTIDMRGPGQADCAVAIGRPLGEVVTLRVLESSLNCSAGDMLLLWGRLTWRKMCRKLLDMTFSSKTNTLVVRQRCGRPGGGVLLRYGSQLAPETFYRECDMQLFGPWGEIVSPSLSPATSNAGGCRLFINVAPHARIAIHALATNMGAGTEGANASYILIRDTHSLRTTAFHGQQVLYWESESSQAEMEFSEGFLKAQASLRGQYWTLQSWVPEMQDPQSWKGKEGT,fluorescence over time (FRET substrate cleavage),[3],incubation of platelets with NH2-Arg-Lys(DABCYL)-NLVYMVTGD(EDANS)-Arg-COOH results in increased fluorescence over time
same,fluorescence over time (LVY-AMC cleavage),Leu-Val-Tyr-AMC,the activity in platelets was due to ADAMTS13 cleaving the LVY-AMC substrate
recombinant ADAMTS13 (protein) AAGGILHLELLVAVGPDVFQAHQEDTERYVLTNLNIGAELLRDPSLGAQFRVHLVKMVILTEPEGAPNITANLTSSLLSVCGWSQTINPEDDTDPGHADLVLYITRFDLELPDGNRQVRGVTQLGGACSPTWSCLITEDTGFDLGVTIAHEIGHSFGLEHDGAPGSGCGPSGHVMASDGAAPRAGLAWSPCSRRQLLSLLSAGRARCVWDPPRPQPGSAGHPPDAQPGLYYSANEQCRVAFGPKAVACTFAREHLDMCQALSCHTDPLDQSSCSRLLVPLLDGTECGVEKWCSKGRCRSLVELTPIAAVHGRWSSWGPRSPCSRSCGGGVVTRRRQCNNPRPAFGGRACVGADLQAEMCNTQACEKTQLEFMSQQCARTDGQPLRSSPGGASFYHWGAAVPHSQGDALCRHMCRAIGESFIMKRGDSFLDGTRCMPSGPREDGTLSLCVSGSCRTFGCDGRMDSQQVWDRCQVCGGDNSTCSPRKGSFTAGRAREYVTFLTVTPNLTSVYIANHRPLFTHLAVRIGGRYVVAGKMSISPNTTYPSLLEDGRVEYRVALTEDRLPRLEEIRIWGPLQEDADIQVYRRYGEEYGNLTRPDITFTYFQPKPRQAWVWAAVRGPCSVSCGAGLRWVNYSCLDQARKELVETVQCQGSQQPPAWPEACVLEPCPPYWAVGDFGPCSASCGGGLRERPVRCVEAQGSLLKTLPPARCRAGAQQPAVALETCNPQPCPARWEVSEPSSCTSAGGAGLALENETCVPGADGLEAPVTEGPGSVDEKLPAPEPCVGMSCPPGWGHLDATSAGEKAPSPWGSIRTGAQAAHVWTPAAGSCSVSCGRGLMELRFLCMDSALRVPVQEELCGLASKPGSRREVCQAVPCPARWQYKLAACSVSCGRGVVRRILYCARAHGEDDGEEILLDTQCQGLPRPEPQEACSLEPCPPRWKVMSLGPCSASCGLGTARRSVACVQLDQGQDVEVDEAACAALVRPEASVPCLIADCTYRWHVGTWMECSVSCGDGIQRRRDTCLGPQAQAPVPADFCQHLPKPVTVRGCWAGPCVGQGTPSLVPHEEAAAPGRTTATPAGASLEWSQARGLLFSPAPQPRRLLPGPQENSVQSSACGRQHLEPTGTIDMRGPGQADCAVAIGRPLGEVVTLRVLESSLNCSAGDMLLLWGRLTWRKMCRKLLDMTFSSKTNTLVVRQRCGRPGGGVLLRYGSQLAPETFYRECDMQLFGPWGEIVSPSLSPATSNAGGCRLFINVAPHARIAIHALATNMGAGTEGANASYILIRDTHSLRTTAFHGQQVLYWESESSQAEMEFSEGFLKAQASLRGQYWTLQSWVPEMQDPQSWKGKEGT,fluorescence signal (Suc-LLVY-AMC cleavage),Suc-Leu-Leu-Val-Tyr-AMC,a greater fluorescence signal was produced by the supernatant from transfected cells verses supernatant from mock transfected cells
